Source: patent publication US20140112930A1 (published 2014)
Where a chain is given by its changes, count along the chain named.

Legend:
[1] = biological target: T1, Full-length human Ang-2 protein conjugated to 6x histidine tag (human, UniProt O15123 19-496); experiment: blocking ELISA, 0.6 nM hAng-2-His to coated hTie-2-mFc
T1 construct: Bought (R&D Systems); printed as full-length; also called hAng-2 WT; Ang-2-His; not shown: 6x histidine tag
T1 sequence: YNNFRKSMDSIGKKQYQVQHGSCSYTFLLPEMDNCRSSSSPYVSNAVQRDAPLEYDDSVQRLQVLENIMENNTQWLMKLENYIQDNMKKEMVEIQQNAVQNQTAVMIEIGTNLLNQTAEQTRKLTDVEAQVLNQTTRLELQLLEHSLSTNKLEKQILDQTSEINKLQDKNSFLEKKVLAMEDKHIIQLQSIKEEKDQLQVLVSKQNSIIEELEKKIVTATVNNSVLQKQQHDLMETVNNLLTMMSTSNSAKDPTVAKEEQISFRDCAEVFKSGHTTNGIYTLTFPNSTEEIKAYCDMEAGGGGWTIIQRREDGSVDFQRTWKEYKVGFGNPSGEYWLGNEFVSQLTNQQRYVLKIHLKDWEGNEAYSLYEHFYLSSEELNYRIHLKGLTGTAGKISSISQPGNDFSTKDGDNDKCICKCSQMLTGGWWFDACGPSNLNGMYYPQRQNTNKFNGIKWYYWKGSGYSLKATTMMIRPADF
Protocol: Briefly, hTie-2-mFc (a chimeric construct consisting of human Tie-2 conjugated to mouse IgG; SEQ ID NO:525) was coated onto 96-well plates at a concentration of 2 μg/ml and incubated overnight followed by washing four times in wash buffer (PBS with 0.05% Tween-20). The plate was then blocked with PBS (Irvine Scientific, Santa Ana, Calif.) containing 0.5% BSA (Sigma-Aldrich Corp., St. Louis, Mo.) for one hour at room temperature. […] The antibody/antigen mixture was then added to the plate containing hTie-2-mFc and incubated for one hour at room temperature. […] Absorbance was read at OD₄₅₀ for 0.1 sec.

[2] = biological target: T2, wild-type Ang-2FD-mFc construct (human, UniProt O15123 282-496); experiment: SPR 25C, hAng-2FD-mFc captured on anti-mFc, 100 nM analyte
T2 construct: also called WT; hAng-2FD-mFc; not shown: mouse Fc
T2 sequence: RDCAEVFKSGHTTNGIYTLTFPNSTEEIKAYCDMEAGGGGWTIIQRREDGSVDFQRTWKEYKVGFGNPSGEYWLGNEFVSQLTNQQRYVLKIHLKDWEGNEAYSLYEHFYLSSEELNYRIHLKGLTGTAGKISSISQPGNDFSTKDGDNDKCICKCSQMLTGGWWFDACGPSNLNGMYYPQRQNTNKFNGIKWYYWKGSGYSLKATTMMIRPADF

[3] = biological target: T3, hAng-2FD-mFc S-417-I (human, UniProt O15123 282-496); experiment: as above
T3 construct: not shown: mouse Fc
T3 chain: T2 sequence with S136I

[4] = biological target: T4, hAng-2FD-mFc F-469-L (human, UniProt O15123 282-496); experiment: as above
T4 construct: not shown: mouse Fc
T4 chain: T2 sequence with F188L

[5] = biological target: T5, hAng-2FD-mFc S-480-P (human, UniProt O15123 282-496); experiment: as above
T5 construct: not shown: mouse Fc
T5 chain: T2 sequence with S199P

[6] = biological target: T6, hAng-1-WT (human, UniProt Q15389 20-498, limits assumed); experiment: SPR, 1 uM blocker premixed with 10 nM hAng-1-WT, over hTie-2-mFc surface
T6 construct: a tag is not mentioned there; also called full-length wild-type human Ang-1
T6 sequence (looked up): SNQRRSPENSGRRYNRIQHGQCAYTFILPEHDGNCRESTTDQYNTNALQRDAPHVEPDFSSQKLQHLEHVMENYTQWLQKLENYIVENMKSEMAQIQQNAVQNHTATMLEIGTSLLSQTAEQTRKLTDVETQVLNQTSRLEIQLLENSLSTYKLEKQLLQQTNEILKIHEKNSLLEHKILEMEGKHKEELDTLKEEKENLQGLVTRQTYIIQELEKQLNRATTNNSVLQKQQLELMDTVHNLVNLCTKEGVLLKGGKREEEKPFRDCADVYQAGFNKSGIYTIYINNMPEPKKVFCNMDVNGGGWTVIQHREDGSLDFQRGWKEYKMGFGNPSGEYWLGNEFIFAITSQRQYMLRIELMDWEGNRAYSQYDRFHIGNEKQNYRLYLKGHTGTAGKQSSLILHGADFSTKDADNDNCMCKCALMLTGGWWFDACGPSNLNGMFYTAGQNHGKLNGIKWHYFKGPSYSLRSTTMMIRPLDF
Protocol: In this experiment, a human Tie-2 full-length extracellular domain construct (hTie-2-mFc-ecto) was amine-coupled on a BIACORE™ chip to create a receptor coated surface. […] The equilibrated solutions were injected over the receptor surfaces at 5 μL/min for 5 minutes at 25° C.

B1: H1H744N (antibody, V domains shown)
VH: QVQLVQSGVEVKKPGASVKVSCKTSGYTFSNNGFSWVRQAPGQGLEWLGWISGYNGNTNYAQKFQGRVTMTTDTSTSTAYMELRTLRSDDTAVYYCARDQDYSNFHWLDPWGQGTLVTVAS
VL: DIQMTQSPSSVSASVGDRVIITCRASQGLSSWLAWYQQKPGTAPKLLIHSASSLQTGVPSRFSGSGSGTEFALTINSLQPEDFGTYYCQQANSFPLTFGGGTRVEIK
[1]
  IC50: 0.0787 nM
[2]
  Kd: 0.0398 nM
  RU: 213 RU
  T ½: 15.1 h
[3]
  Kd: 0.0512 nM
  RU: 127 RU
  T ½: 26.5 h
[4]
  Kd: 0.195 nM
  RU: 180 RU
  T ½: 3.95 h
[5]
  Kd: 0.0225 nM
  RU: 228 RU
  T ½: 35.5 h
[6]
  Percent of Negative Control Binding: 34%
